Test results reported in the RNAGym collection of RNA variant scans (doi:10.1093/molbev/msab373).

B1: Azoarcus group I ribozyme (parent)
chain: GUGCCUUGCGCCGGGAAACCACGCAAGGGAUGGUGUCAAAUUCGGCGAAACCUAAGCGCCCGCCCGGGCGUAUGGCAACGCCGAGCCAAGCUUCGGCGCCUGCGCCGAUGAAGGUGUAGAGACUAGACGGCACCCACCUAAGGCAAACGCUAUGGUGAAGGCAUAGUCCAGGGAGUGGCGAAAGUCACACAAACCGG

Variants of: B1
Assay: reverse-splicing fitness (ratio to wild type); higher = more active; in vitro selection; Mg2+ level not given
Procedure, shortened: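 An in vitro group I ribozyme library with randomized positions was T7-transcribed and gel-purified. In triplicate, 10 pmol RNA in EPPS pH 7.5 was reacted with 50 pmoles of a 30-nt RNA substrate for 1 h at 37 °C across several added MgCl2 levels (1–48 mM), then stopped with EDTA. Products were reverse transcribed from a substrate-complementary primer, PCR-amplified and sequenced (HiSeq 4000). Fitness is a variant's read proportion after selection over that before, normalised to wild type.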

Variant	reverse-splicing fitness
A111C A145U C150A C169G	0.0113
A111C A145U C150A C169A	0.0106
A111C A145U C150A C169U	0.0179
A111C A145C C150G C169A U176A	0.00774
A111C A145C C150G C169A U176G	0.00574
A111C A145C C150G C169A U176C	0.00833
A111C A120U C150G C169U	0.00955
A111C A120U C150G C169G	0.00853
A111C A120U C150G C169A	0.00675
A111C A145C C150A C169U U176G	0.00658
A111C A145C C150A C169U U176A	0.0151
A111C A145C C150A C169U U176C	0.0102
A111C A145C C150U C169G	0.0204
A111C A145C C150U C169A	0.0114
A111C A145C C150U C169U	0.032
A111C A145G U176G	0.185
A111C A145G U176C	0.401
A111C A145G U176A	0.432
A111C A120U C150U U176G	0.0367
A111C A120U C150U U176A	0.145
A111C A120U C150U U176C	0.194
A111C A120U C150U C169U U176A	0.0122
A111C A120U C150U C169U U176C	0.0116
A111C A120U C150U C169U U176G	0.00319

Variant	reverse-splicing fitness
A111C A145C C150U C169G U176A	0.0249
A111C A145C C150U C169G U176C	0.0197
A111C A145C C150U C169G U176G	0.00689
A111C A145G C150U C169A U176C	0.0152
A111C A145G C150U C169A U176A	0.0141
A111C A145G C150U C169A U176G	0.00725
A111C A120U A145U C150A C169U	0.00653
A111C A145C C169A U176C	0.0113
A111C A145C C169A U176G	0.007
A111C A145C C169A U176A	0.0151
A111C A145G C150G C169U U176C	0.0142
A111C A145G C150G C169U U176A	0.0107
A111C A145G C150G C169U U176G	0.00713
A111C A120U A145U C169A U176G	0.00217
A111C A120U A145U C169A U176C	0.00217
A111C A120U A145U C169A U176A	0.00268
A111C C150A C169U	0.019
A111C C150A C169A	0.0113
A111C C150A C169G	0.0124
A111C A120U A145U C150U C169A U176C	0.00252
A111C A120U A145U C150U C169A U176A	0.00293
A111C A120U A145U C150U C169A U176G	0.00217
A111C A145C C150A C169A U176A	0.0117
A111C A145C C150A C169A U176C	0.00898

Variant	reverse-splicing fitness
A111C A145C C150A C169A U176G	0.00714
A111C A120U A145U C150G C169A	0.00366
A111C A120U A145U C150G C169U	0.00794
A111C A120U A145U C150G C169G	0.00663
A111C A145U C150A U176C	0.166
A111C A145U C150A U176A	0.114
A111C A145U C150A U176G	0.0589
A111C A145G C169G U176A	0.0283
A111C A145G C169G U176G	0.00716
A111C A145G C169G U176C	0.0392
A111C A120U C150A C169A U176G	0.00239
A111C A120U C150A C169A U176A	0.00602
A111C A120U C150A C169A U176C	0.00383
A111C A120U A145U C150G C169G U176G	0.00233
A111C A120U A145U C150G C169G U176C	0.00291
A111C A120U A145U C150G C169G U176A	0.00267
A111C A120U C150A U176G	0.0153
A111C A120U C150A U176C	0.0376
A111C A120U C150A U176A	0.0268
A111C A120U A145U C150U C169U U176C	0.0142
A111C A120U A145U C150U C169U U176A	0.00859
A111C A120U A145U C150U C169U U176G	0.00224
A111C A120U C150G C169A U176A	0.00683
A111C A120U C150G C169A U176C	0.00504

Variant	reverse-splicing fitness
A111C A120U C150G C169A U176G	0.00363
A111C A145U C150A C169A U176G	0.00755
A111C A145U C150A C169A U176C	0.0151
A111C A145U C150A C169A U176A	0.0138
A111C A145G C150A	0.31
A111C A145G C150U	0.679
A111C A145G C150G	0.212
A111C A145G C150U C169G U176A	0.0138
A111C A145G C150U C169G U176G	0.00741
A111C A145G C150U C169G U176C	0.021
A111C A145U C150U C169A	0.0212
A111C A145U C150U C169G	0.0433
A111C A145U C150U C169U	0.0751
A111C C150G	0.185
A111C C150A	0.303
A111C A120U A145U C150U	0.491
A111C A120U A145U C150G	0.0737
A111C A120U C150G C169G U176C	0.0039
A111C A120U C150G C169G U176G	0.00234
A111C A120U C150G C169G U176A	0.00481
A111C A145G C150G C169A U176G	0.00766
A111C A145G C150G C169A U176A	0.0119
A111C A145G C150G C169A U176C	0.011
A111C A145G C150A U176A	0.146

Variant	reverse-splicing fitness
A111C A145G C150A U176G	0.058
A111C A145G C150A U176C	0.168
A111C A120U C150A C169G U176A	0.00448
A111C A120U C150A C169G U176G	0.00245
A111C A120U C150A C169G U176C	0.00434
A111C A145C C169U U176C	0.0254
A111C A145C C169U U176G	0.00694
A111C A145C C169U U176A	0.0278
A111C C150A C169G U176G	0.00762
A111C C150A C169G U176A	0.016
A111C C150A C169G U176C	0.0246
A111C A120U C150U C169G	0.0296
A111C A120U C150U C169A	0.00639
A111C A120U C150U C169U	0.0424
A111C A145U C150G C169U U176G	0.00683
A111C A145U C150G C169U U176C	0.0134
A111C A145U C150G C169U U176A	0.0095
A111C A120U C150G C169U U176A	0.00446
A111C A120U C150G C169U U176C	0.00564
A111C A120U C150G C169U U176G	0.00276
A111C A145U C150G U176A	0.0925
A111C A145U C150G U176C	0.119
A111C A145U C150G U176G	0.022
A111C A120U C169G U176A	0.00529

Variant	reverse-splicing fitness
A111C A120U C169G U176C	0.00999
A111C A120U C169G U176G	0.00154
A111C A145C C150A C169G U176A	0.0274
A111C A145C C150A C169G U176C	0.0189
A111C A145C C150A C169G U176G	0.00627
A111C A145C C150A U176A	0.0687
A111C A145C C150A U176C	0.104
A111C A145C C150A U176G	0.0323
A111C A145U C150G C169G	0.0101
A111C A145U C150G C169U	0.0178
A111C A145U C150G C169A	0.00994
A111C A145U C169A U176A	0.0141
A111C A145U C169A U176C	0.018
A111C A145U C169A U176G	0.00736
A111C A120U A145U C150A C169U U176G	0.00271
A111C A120U A145U C150A C169U U176A	0.00386
A111C A120U A145U C150A C169U U176C	0.0049
A111C A120U C150G U176G	0.00356
A111C A120U C150G U176A	0.0127
A111C A120U C150G U176C	0.0217
A111C A145G C150A C169U U176C	0.019
A111C A145G C150A C169U U176A	0.0185
A111C A145G C150A C169U U176G	0.00843
A111C A120U A145U C150A C169G U176G	0.00199

Variant	reverse-splicing fitness
A111C A120U A145U C150A C169G U176A	0.00295
A111C A120U A145U C150A C169G U176C	0.00388
A111C A145U C150A C169U U176C	0.0154
A111C A145U C150A C169U U176A	0.0176
A111C A145U C150A C169U U176G	0.00751
A111C A145C C169G U176C	0.0318
A111C A145C C169G U176A	0.0324
A111C A145C C169G U176G	0.00691
A111C A145G C169U U176C	0.0294
A111C A145G C169U U176G	0.00717
A111C A145G C169U U176A	0.0269
A111C A145G C150G C169A	0.00939
A111C A145G C150G C169U	0.0157
A111C A145G C150G C169G	0.0116
A111C A120U A145U C169U U176A	0.0121
A111C A120U A145U C169U U176G	0.00286
A111C A120U A145U C169U U176C	0.0216
A111C A120U A145U C150U C169A	0.00426
A111C A120U A145U C150U C169G	0.0348
A111C A120U A145U C150U C169U	0.0452
A111C A145U C150U C169U U176G	0.00764
A111C A145U C150U C169U U176A	0.0264
A111C A145U C150U C169U U176C	0.0241
